T1: neuropeptide Y2 receptor (SK-N-BE cell membranes), P49146
T1 chain: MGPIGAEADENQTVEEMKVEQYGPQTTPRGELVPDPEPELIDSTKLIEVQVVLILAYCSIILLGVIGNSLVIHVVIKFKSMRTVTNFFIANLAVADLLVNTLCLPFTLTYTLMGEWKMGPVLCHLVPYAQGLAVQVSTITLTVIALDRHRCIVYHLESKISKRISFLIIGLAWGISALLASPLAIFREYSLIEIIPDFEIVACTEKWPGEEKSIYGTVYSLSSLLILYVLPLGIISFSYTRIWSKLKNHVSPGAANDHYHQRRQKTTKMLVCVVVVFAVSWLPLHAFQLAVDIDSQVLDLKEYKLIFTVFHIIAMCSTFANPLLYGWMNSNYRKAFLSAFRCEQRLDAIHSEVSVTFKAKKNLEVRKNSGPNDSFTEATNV

T2: CGRP receptors (SK-N-MC cell membranes), Q16602
T2 chain 1: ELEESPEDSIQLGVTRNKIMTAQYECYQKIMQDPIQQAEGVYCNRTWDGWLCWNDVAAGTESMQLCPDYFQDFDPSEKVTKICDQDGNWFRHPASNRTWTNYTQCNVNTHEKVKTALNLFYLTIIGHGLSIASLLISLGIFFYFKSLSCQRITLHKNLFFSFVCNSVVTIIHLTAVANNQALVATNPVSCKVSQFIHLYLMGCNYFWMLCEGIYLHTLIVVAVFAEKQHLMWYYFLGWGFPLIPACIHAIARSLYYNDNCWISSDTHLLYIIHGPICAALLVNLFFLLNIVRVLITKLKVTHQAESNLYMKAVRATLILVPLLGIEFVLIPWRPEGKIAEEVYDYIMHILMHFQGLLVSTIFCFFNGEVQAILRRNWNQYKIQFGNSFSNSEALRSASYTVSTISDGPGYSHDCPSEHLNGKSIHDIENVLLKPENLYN
T2 chain 2: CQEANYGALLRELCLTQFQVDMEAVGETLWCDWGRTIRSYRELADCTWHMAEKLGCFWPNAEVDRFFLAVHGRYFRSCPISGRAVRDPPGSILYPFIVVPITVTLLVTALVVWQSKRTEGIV

T3: amylin receptors (rat nucleus accumbens membranes) (rat)
T3 chain 1: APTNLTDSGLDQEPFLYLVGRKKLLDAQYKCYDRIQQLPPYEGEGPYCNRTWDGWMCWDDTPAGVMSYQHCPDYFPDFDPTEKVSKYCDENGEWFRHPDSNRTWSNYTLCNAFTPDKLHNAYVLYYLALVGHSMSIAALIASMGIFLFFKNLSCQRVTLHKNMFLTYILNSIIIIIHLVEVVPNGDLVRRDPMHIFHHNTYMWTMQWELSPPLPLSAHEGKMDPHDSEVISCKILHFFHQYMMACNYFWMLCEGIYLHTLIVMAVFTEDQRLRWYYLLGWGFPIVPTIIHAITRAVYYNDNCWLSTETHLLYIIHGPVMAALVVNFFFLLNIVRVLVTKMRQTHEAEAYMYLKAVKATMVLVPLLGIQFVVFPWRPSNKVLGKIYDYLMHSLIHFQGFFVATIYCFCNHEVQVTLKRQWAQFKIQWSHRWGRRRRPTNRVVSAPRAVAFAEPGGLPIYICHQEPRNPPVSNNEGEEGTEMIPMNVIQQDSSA
T3 chain 2: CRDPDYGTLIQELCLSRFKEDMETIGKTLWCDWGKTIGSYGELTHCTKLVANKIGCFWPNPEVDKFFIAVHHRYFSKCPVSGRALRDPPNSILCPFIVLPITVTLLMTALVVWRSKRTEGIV


Experiments:
[1] = biological target: T1, neuropeptide Y2 receptor (SK-N-BE cell …); test: [125I]-human PYY displacement, SK-N-BE membranes
calcitonin receptor = test: cell-based or functional assay
Chain of calcitonin receptor (P30988 whole entry): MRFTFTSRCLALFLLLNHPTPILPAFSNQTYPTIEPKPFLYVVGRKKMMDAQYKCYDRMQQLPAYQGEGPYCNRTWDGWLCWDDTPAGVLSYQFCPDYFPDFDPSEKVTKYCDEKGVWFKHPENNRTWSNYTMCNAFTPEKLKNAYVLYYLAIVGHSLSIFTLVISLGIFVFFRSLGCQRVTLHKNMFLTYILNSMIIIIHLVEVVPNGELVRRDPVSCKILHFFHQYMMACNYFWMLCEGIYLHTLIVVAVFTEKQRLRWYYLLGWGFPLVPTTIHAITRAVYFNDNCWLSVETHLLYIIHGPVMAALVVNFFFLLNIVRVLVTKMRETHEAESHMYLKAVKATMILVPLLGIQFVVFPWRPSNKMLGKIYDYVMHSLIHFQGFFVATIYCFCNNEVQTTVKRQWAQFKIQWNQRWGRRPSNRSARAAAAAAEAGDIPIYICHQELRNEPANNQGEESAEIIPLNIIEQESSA

[2] = biological target: GLP-1/GIP/CT (receptors read by the GLP-1/GIP/CT cyclase assay); test: cell-based or functional assay
[3] = biological target: T2, CGRP receptors (SK-N-MC cell …); test: 125I-hCGRP displacement, SK-N-MC membranes
[4] = biological target: T3, amylin receptors (rat nucleus accumbens …); test: amylin receptor binding assay
[5] = biological target: amylin receptors (rat nucleus accumbens membranes) (rat); test: 125I-amylin displacement, rat nucleus accumbens membranes

Binder	Receptor Binding [1]	Receptor Activation: CT cyclase (calcitonin receptor)	Receptor Activation: GLP-1/GIP/CT cyclase [2]	Receptor Binding [3]	further results
[#Mal-Bu-(bAla)-PYY-(3-36), amide] [#S-Prp-(bAla)-Compound 10, amide] (modifications not checked) chain 1: not shown chain 2: […]	0.2				
[#Suc-(bAla)-PYY-(3-36), amide] [#NH-Des-Lys1-Rat Amylin, amide] (modifications not checked) chain 1: not shown chain 2: CNTATCATQRLANFLVRSSNNLGPVLPPTNVGSNTY	0.39	645			
DFMGWMDFGKRKCNTATCATQRLANELVRLQTYPRTNVGSNTY (modifications not checked) [27(p-CH2SO3)-PheCCK8(26-33),G,K,R,15Glu,hAmy(1-17),18Arg,Sct(18-26),hAmy(32-37)]			1000	4.4	
DFMGWMDFGKRKCNTATCATQRLANELVRLQTYPRTNVGSNTY (modifications not checked) [DF(P-CH2SO3)… …]					IC50 [4]: 0.083 nM
KCNTATCATQRLANFLVRSSNNLGPVLPPTNVGSNTY (modifications not checked) [Rat amylin]		326	5	21	Receptor Binding [5]: 0.05

— patent US20090286723A1
